From patent US20260242419A1, “A CYCLIC PEPTIDE FOR TRAPPING INTERLEUKIN-1 BETA” (Merck Sharp & Dohme LLC, priority 2023, published 2026) come the findings set out here.

The experiment deals with Recombinant human IL-1β (BioLegend 579404) (human, UniProt P01584 117-269). Description: cell-based or functional assay.

Starred links: 1 amine or outer side, 2 acyl side, 3 side chain; linkers in the order of their positions; H or OH if unused. Non-standard residues stand in square brackets, D forms with d. TyrEtNAc = (2S)-3-[4-(2-acetamidoethoxy)phenyl]-2-amino-propanoic acid, CC(=O)NCCOc1ccc(C[C@H](N[*:1])C(=O)[*:2])cc1; dPro(4R-(4-pyridylmethyl)) = O=C(O)[C@H]1C[C@@H](Cc2ccncc2)CN1; Trp(βS-Me,4-F) = C[C@@H](c1c[nH]c2cccc(F)c12)[C@H](N)C(=O)O; Ala(1-bicyclo(1.1.1)pentyl) = N[C@@H](CC12CC(C1)C2)C(=O)O; dPro(3S-(4-F-Bn)) = O=C(O)[C@@H]1NCC[C@@H]1Cc1ccc(F)cc1; Phe(4-CONH2) = NC(=O)c1ccc(C[C@H](N)C(=O)O)cc1; Phe(4-COOH) = N[C@@H](Cc1ccc(C(=O)O)cc1)C(=O)O; Pro(cis-4-F) = O=C(O)[C@@H]1C[C@H](F)CN1; Ala(4-THP) = N[C@@H](CC1CCOCC1)C(=O)O; d(αMeD) = C[C@@](N)(CC(=O)O)C(=O)O; 4Pal = N[C@@H](Cc1ccncc1)C(=O)O; d(αMeS) = C[C@@](N)(CO)C(=O)O; Dab = NCC[C@H](N)C(=O)O; Aib = CC(C)(N)C(=O)O

B1: SEQ ID NO 371 (peptide)
peptide: cyclo([TyrEtNAc][Ala(1-bicyclo(1.1.1)pentyl)][Phe(4-COOH)]G[Pro(cis-4-F)][Trp(βS-Me,4-F)][Aib]SW[d(αMeS)][Ala(4-THP)]Q[Dab]G[dPro(3S-(4-F-Bn))])
SMILES: CC(=O)NCCOc1ccc(C[C@@H]2NC(=O)[C@H]3[C@@H](Cc4ccc(F)cc4)CCN3C(=O)CNC(=O)[C@H](CCN)NC(=O)[C@H](CCC(N)=O)NC(=O)[C@H](CC3CCOCC3)NC(=O)[C@@](C)(CO)NC(=O)[C@H](Cc3c[nH]c4ccccc34)NC(=O)[C@H](CO)NC(=O)C(C)(C)NC(=O)[C@H]([C@@H](C)c3c[nH]c4cccc(F)c34)NC(=O)[C@@H]3C[C@H](F)CN3C(=O)CNC(=O)[C@H](Cc3ccc(C(=O)O)cc3)NC(=O)[C@H](CC34CC(C3)C4)NC2=O)cc1
Turning to B1, the “MRC5 IC50” value was 0.014 nM.

B2: SEQ ID NO 378 (peptide)
peptide: cyclo([TyrEtNAc][4Pal][Phe(4-CONH2)]G[Pro(cis-4-F)][Trp(βS-Me,4-F)][Aib]SW[d(αMeS)][Ala(4-THP)]Q[Dab]G[dPro(4R-(4-pyridylmethyl))])
SMILES: CC(=O)NCCOc1ccc(C[C@@H]2NC(=O)[C@H]3C[C@@H](Cc4ccncc4)CN3C(=O)CNC(=O)[C@H](CCN)NC(=O)[C@H](CCC(N)=O)NC(=O)[C@H](CC3CCOCC3)NC(=O)[C@@](C)(CO)NC(=O)[C@H](Cc3c[nH]c4ccccc34)NC(=O)[C@H](CO)NC(=O)C(C)(C)NC(=O)[C@H]([C@@H](C)c3c[nH]c4cccc(F)c34)NC(=O)[C@@H]3C[C@H](F)CN3C(=O)CNC(=O)[C@H](Cc3ccc(C(N)=O)cc3)NC(=O)[C@H](Cc3ccncc3)NC2=O)cc1
B2: the “MRC5 IC50” value turned out to be 0.043 nM.

B3: SEQ ID NO 376 (peptide)
peptide: cyclo([TyrEtNAc][Ala(1-bicyclo(1.1.1)pentyl)][Phe(4-CONH2)]G[Pro(cis-4-F)][Trp(βS-Me,4-F)][Aib]SW[d(αMeD)][Ala(4-THP)]Q[Dab]G[dPro(4R-(4-pyridylmethyl))])
SMILES: CC(=O)NCCOc1ccc(C[C@@H]2NC(=O)[C@H]3C[C@@H](Cc4ccncc4)CN3C(=O)CNC(=O)[C@H](CCN)NC(=O)[C@H](CCC(N)=O)NC(=O)[C@H](CC3CCOCC3)NC(=O)[C@@](C)(CC(=O)O)NC(=O)[C@H](Cc3c[nH]c4ccccc34)NC(=O)[C@H](CO)NC(=O)C(C)(C)NC(=O)[C@H]([C@@H](C)c3c[nH]c4cccc(F)c34)NC(=O)[C@@H]3C[C@H](F)CN3C(=O)CNC(=O)[C@H](Cc3ccc(C(N)=O)cc3)NC(=O)[C@H](CC34CC(C3)C4)NC2=O)cc1
In the case of B3, the “MRC5 IC50” value stood at 0.048 nM.

B4: SEQ ID NO 377 (peptide)
peptide: cyclo([TyrEtNAc][4Pal][Phe(4-CONH2)]G[Pro(cis-4-F)][Trp(βS-Me,4-F)][Aib]SW[d(αMeD)][Ala(4-THP)]Q[Dab]G[dPro(4R-(4-pyridylmethyl))])
SMILES: CC(=O)NCCOc1ccc(C[C@@H]2NC(=O)[C@H]3C[C@@H](Cc4ccncc4)CN3C(=O)CNC(=O)[C@H](CCN)NC(=O)[C@H](CCC(N)=O)NC(=O)[C@H](CC3CCOCC3)NC(=O)[C@@](C)(CC(=O)O)NC(=O)[C@H](Cc3c[nH]c4ccccc34)NC(=O)[C@H](CO)NC(=O)C(C)(C)NC(=O)[C@H]([C@@H](C)c3c[nH]c4cccc(F)c34)NC(=O)[C@@H]3C[C@H](F)CN3C(=O)CNC(=O)[C@H](Cc3ccc(C(N)=O)cc3)NC(=O)[C@H](Cc3ccncc3)NC2=O)cc1
Turning to B4, the “MRC5 IC50” value worked out at 0.04 nM.

B5: SEQ ID NO 374 (peptide)
peptide: cyclo([TyrEtNAc][Ala(1-bicyclo(1.1.1)pentyl)][Phe(4-COOH)]G[Pro(cis-4-F)][Trp(βS-Me,4-F)][Aib]SW[d(αMeD)][Ala(4-THP)]Q[Dab]G[dPro(4R-(4-pyridylmethyl))])
SMILES: CC(=O)NCCOc1ccc(C[C@@H]2NC(=O)[C@H]3C[C@@H](Cc4ccncc4)CN3C(=O)CNC(=O)[C@H](CCN)NC(=O)[C@H](CCC(N)=O)NC(=O)[C@H](CC3CCOCC3)NC(=O)[C@@](C)(CC(=O)O)NC(=O)[C@H](Cc3c[nH]c4ccccc34)NC(=O)[C@H](CO)NC(=O)C(C)(C)NC(=O)[C@H]([C@@H](C)c3c[nH]c4cccc(F)c34)NC(=O)[C@@H]3C[C@H](F)CN3C(=O)CNC(=O)[C@H](Cc3ccc(C(=O)O)cc3)NC(=O)[C@H](CC34CC(C3)C4)NC2=O)cc1
As to B5, the “MRC5 IC50” value stood at 0.017 nM.

B6: SEQ ID NO 372 (peptide)
peptide: cyclo([TyrEtNAc][4Pal][Phe(4-COOH)]G[Pro(cis-4-F)][Trp(βS-Me,4-F)][Aib]SW[d(αMeD)][Ala(4-THP)]Q[Dab]G[dPro(3S-(4-F-Bn))])
SMILES: CC(=O)NCCOc1ccc(C[C@@H]2NC(=O)[C@H]3[C@@H](Cc4ccc(F)cc4)CCN3C(=O)CNC(=O)[C@H](CCN)NC(=O)[C@H](CCC(N)=O)NC(=O)[C@H](CC3CCOCC3)NC(=O)[C@@](C)(CC(=O)O)NC(=O)[C@H](Cc3c[nH]c4ccccc34)NC(=O)[C@H](CO)NC(=O)C(C)(C)NC(=O)[C@H]([C@@H](C)c3c[nH]c4cccc(F)c34)NC(=O)[C@@H]3C[C@H](F)CN3C(=O)CNC(=O)[C@H](Cc3ccc(C(=O)O)cc3)NC(=O)[C@H](Cc3ccncc3)NC2=O)cc1
As to B6, the “MRC5 IC50” value amounted to 0.009 nM.

B7: SEQ ID NO 375 (peptide)
peptide: cyclo([TyrEtNAc][Ala(1-bicyclo(1.1.1)pentyl)][Phe(4-COOH)]G[Pro(cis-4-F)][Trp(βS-Me,4-F)][Aib]SW[d(αMeS)][Ala(4-THP)]Q[Dab]G[dPro(4R-(4-pyridylmethyl))])
SMILES: CC(=O)NCCOc1ccc(C[C@@H]2NC(=O)[C@H]3C[C@@H](Cc4ccncc4)CN3C(=O)CNC(=O)[C@H](CCN)NC(=O)[C@H](CCC(N)=O)NC(=O)[C@H](CC3CCOCC3)NC(=O)[C@@](C)(CO)NC(=O)[C@H](Cc3c[nH]c4ccccc34)NC(=O)[C@H](CO)NC(=O)C(C)(C)NC(=O)[C@H]([C@@H](C)c3c[nH]c4cccc(F)c34)NC(=O)[C@@H]3C[C@H](F)CN3C(=O)CNC(=O)[C@H](Cc3ccc(C(=O)O)cc3)NC(=O)[C@H](CC34CC(C3)C4)NC2=O)cc1
B7: the “MRC5 IC50” value is 0.025 nM.

B8: SEQ ID NO 373 (peptide)
peptide: cyclo([TyrEtNAc][Ala(1-bicyclo(1.1.1)pentyl)][Phe(4-CONH2)]G[Pro(cis-4-F)][Trp(βS-Me,4-F)][Aib]SW[d(αMeD)][Ala(4-THP)]Q[Dab]G[dPro(3S-(4-F-Bn))])
SMILES: CC(=O)NCCOc1ccc(C[C@@H]2NC(=O)[C@H]3[C@@H](Cc4ccc(F)cc4)CCN3C(=O)CNC(=O)[C@H](CCN)NC(=O)[C@H](CCC(N)=O)NC(=O)[C@H](CC3CCOCC3)NC(=O)[C@@](C)(CC(=O)O)NC(=O)[C@H](Cc3c[nH]c4ccccc34)NC(=O)[C@H](CO)NC(=O)C(C)(C)NC(=O)[C@H]([C@@H](C)c3c[nH]c4cccc(F)c34)NC(=O)[C@@H]3C[C@H](F)CN3C(=O)CNC(=O)[C@H](Cc3ccc(C(N)=O)cc3)NC(=O)[C@H](CC34CC(C3)C4)NC2=O)cc1
Regarding B8, the “MRC5 IC50” value came to 0.012 nM.
